# Laboratory results reported in PMC2700083, “A covalent peptide inhibitor of RGS4 identified in a focused one-bead, one compound library screen” (BMC Pharmacology, 2009).
# Legend:
# Assay type in all cases: binding
# [1] = biological target: RGS4 no Cys in C-terminus; test: FCPIA, RGS4 mutant with no Cys in C-terminus; settings: read-out: Gαo affinity
# Experimental: (§1) Since 5nd forms an irreversible, DTT-sensitive bond with RGS, it was suspected that it binds covalently to a cysteine in the protein through a disulfide bridge. Indeed, removal of all 7 cysteines (termed the -7C mutant) from RGS4 greatly diminished 5nd activity (logIC50 of -3.24 ± 0.14 for -7C vs. -4.36 ± 0.02 for wild type) (Figure 5, Table 2).
# (§2) Figure 5 Dose curves of 5nd on various RGS4 cysteine mutants. Various concentrations of 5nd were tested for disruption of the RGS4-Gαo interaction for C95A (5 nM), or […], C71A (5nM) or C148A (5nM) (B), A95C in the -7C (5nM), or A132C in the -7C (5nM) (C), A71C in the -7C (5nM), or A148C in the -7C (5nM) (D) or the mutant with no cysteines in the domain (20 nM) or the C-terminus (20 nM) (E) in the FCPIA (mean ± S.E.M., n ≥ 3).
# (§3) Proteins were expressed, purified and labeled as described previously. The mutagenesis was done using the "QuickChange Multi Site-Directed Mutagenesis Kit" from Stratagene according to the manufacturer's protocol. The construct of RGS4 used in these studies is a maltose binding protein (MBP-) fusion protein of the RGS4 sequence from which the amphipathic N-terminal helix has been removed (i.e. MBP-RGS4Δ51N). For simplicity in the text, this will be referred to as RGS4. […]
# RGS4 A148C, -7C = biological target: T1, RGS4 A148C, -7C (Rattus norvegicus, UniProt P49799, C132A/C183A/C197A/C204A/C71A/C95A); test: FCPIA, RGS4 A148C in the -7C; settings: read-out: Gαo affinity
# T1 construct: made in house
# T1 sequence (P49799 52-205 C71A/C95A/C132A/C183A/C197A/C204A): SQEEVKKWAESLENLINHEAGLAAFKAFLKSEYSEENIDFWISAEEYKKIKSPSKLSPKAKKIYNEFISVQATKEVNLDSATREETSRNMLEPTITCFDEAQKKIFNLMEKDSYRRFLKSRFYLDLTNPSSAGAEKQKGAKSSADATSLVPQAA
# Experimental: as §2
# (§4) The previous experiments tested which cysteines are necessary for inhibition by 5nd. In an alternative approach, we added cysteines back to the -7C mutant to determine which might be sufficient for 5nd activity. […] Furthermore, Cys132 is involved in the actions but this is clearly not sufficient to explain them. Thus it is concluded that 5nd is at least partially non-selective in its cysteine modification.
# as §3
# RGS4 C95A = biological target: T2, RGS4 C95A (Rattus norvegicus, UniProt P49799, C95A); test: FCPIA, RGS4 cysteine mutant C95A; settings: read-out: Gαo affinity
# T2 construct: made in house
# T2 sequence (P49799 52-205 C95A limits assumed): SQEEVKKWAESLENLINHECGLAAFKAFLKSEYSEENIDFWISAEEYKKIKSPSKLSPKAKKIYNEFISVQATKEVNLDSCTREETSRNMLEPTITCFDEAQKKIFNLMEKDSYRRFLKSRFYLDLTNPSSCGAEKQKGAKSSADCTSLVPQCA
# Experimental: as §2
# (§5) Proteins were expressed, purified and labeled as described previously. The mutagenesis was done using the "QuickChange Multi Site-Directed Mutagenesis Kit" from Stratagene according to the manufacturer's protocol. The construct of RGS4 used in these studies is a maltose binding protein (MBP-) fusion protein of the RGS4 sequence from which the amphipathic N-terminal helix has been removed (i.e. MBP-RGS4Δ51N). For simplicity in the text, this will be referred to as RGS4. All other RGS proteins were human sequences and were used as Mpb fusions: RGS7 RGS domain (aa: 305–453), RGS8 full length, RGS16 full length, and RGS19ΔC11 (amino acids 1–209). To cleave RGS4Δ51N from the MBP-His6 construct for MS analysis, MBP-His6-RGS4Δ51N was treated with 15% MBP-His6-TEV protease S219V [11] for 22 hours at 4°C and purified over a Ni-NTA column.
# (§6) FCPIA was performed as previously published.
# RGS4 C132A = biological target: T3, RGS4 C132A (Rattus norvegicus, UniProt P49799, C132A); test: FCPIA, RGS4 cysteine mutant C132A; settings: read-out: Gαo affinity
# T3 construct: made in house
# T3 sequence (P49799 52-205 C132A limits assumed): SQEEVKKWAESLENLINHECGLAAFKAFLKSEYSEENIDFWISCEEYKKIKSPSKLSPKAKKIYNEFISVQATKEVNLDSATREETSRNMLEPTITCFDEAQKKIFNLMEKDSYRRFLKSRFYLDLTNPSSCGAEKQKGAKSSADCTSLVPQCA
# Experimental: as §2, §5, §6
# RGS4 = biological target: T4, RGS4 (Rattus norvegicus, UniProt P49799); test: FCPIA (flow cytometry protein interaction assay), RGS4-Gαo interaction, wild type RGS4 (MBP-RGS4Δ51N); settings: wild type RGS4Δ51N, calculated in the FCPIA; read-out: Gαo affinity
# T4 construct: made in house
# T4 sequence (P49799 52-205 limits assumed): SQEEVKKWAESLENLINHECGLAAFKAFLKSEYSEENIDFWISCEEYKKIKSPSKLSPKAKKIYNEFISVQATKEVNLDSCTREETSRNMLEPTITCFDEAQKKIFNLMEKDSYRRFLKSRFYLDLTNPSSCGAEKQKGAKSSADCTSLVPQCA
# RGS4 A132C, -7C = biological target: T5, RGS4 A132C, -7C (Rattus norvegicus, UniProt P49799, C148A/C183A/C197A/C204A/C71A/C95A); test: FCPIA, RGS4 A132C in the -7C; settings: read-out: Gαo affinity
# T5 construct: made in house
# Experimental: as §2, §4, §3
# RGS4 A95C, -7C = biological target: T6, RGS4 A95C, -7C (Rattus norvegicus, UniProt P49799, C132A/C148A/C183A/C197A/C204A/C71A); test: FCPIA, RGS4 A95C in the -7C; settings: read-out: Gαo affinity
# T6 construct: made in house
# Experimental: as §2, §4, §3
# RGS4 C71A = biological target: T7, RGS4 C71A (Rattus norvegicus, UniProt P49799, C71A); test: FCPIA, RGS4 cysteine mutant C71A; settings: read-out: Gαo affinity
# T7 construct: made in house
# T7 sequence (P49799 52-205 C71A limits assumed): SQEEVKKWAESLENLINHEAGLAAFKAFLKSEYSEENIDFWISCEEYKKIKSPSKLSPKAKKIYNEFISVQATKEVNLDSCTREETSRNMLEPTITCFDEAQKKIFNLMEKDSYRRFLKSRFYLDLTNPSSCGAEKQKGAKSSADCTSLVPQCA
# Experimental: as §2, §5, §6
# [2] = biological target: T8, RGS4 no Cys in RGS domain (Rattus norvegicus, UniProt P49799, C132A/C148A/C71A/C95A); test: FCPIA, RGS4 mutant with no Cys in RGS domain; settings: no Cys in RGS domain; read-out: Gαo affinity
# T8 construct: made in house
# Experimental: as §1, §2, §3
# RGS4 C148A = biological target: T9, RGS4 C148A (Rattus norvegicus, UniProt P49799, C148A); test: FCPIA, RGS4 cysteine mutant C148A; settings: read-out: Gαo affinity
# T9 construct: made in house
# Experimental: as §2, §5, §6
# RGS4 A71C, -7C = biological target: T10, RGS4 A71C, -7C (Rattus norvegicus, UniProt P49799, C132A/C148A/C183A/C197A/C204A/C95A); test: FCPIA, RGS4 A71C in the -7C; settings: read-out: Gαo affinity
# T10 construct: made in house
# Experimental: as §2, §4, §3
# RGS4 -7C = biological target: T11, RGS4 -7C (Rattus norvegicus, UniProt P49799, C132A/C148A/C183A/C197A/C204A/C71A/C95A); test: FCPIA, RGS4 -7C mutant (all 7 cysteines removed); settings: read-out: Gαo affinity
# T11 construct: made in house
# Experimental: as §1, §2, §3
# T6 sequence (P49799 52-205 C71A/C132A/C148A/C183A/C197A/C204A): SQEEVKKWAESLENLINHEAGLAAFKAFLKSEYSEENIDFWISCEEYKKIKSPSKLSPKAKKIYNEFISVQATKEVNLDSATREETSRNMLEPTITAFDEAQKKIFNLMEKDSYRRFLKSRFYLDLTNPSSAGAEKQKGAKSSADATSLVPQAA
# T9 sequence (P49799 52-205 C148A limits assumed): as the sequence (P49799 52-205 C71A/C132A/C148A/C183A/C197A/C204A) above, with A20C, A81C, A132C, A146C, A153C counted along it
# T11 sequence (P49799 52-205 C71A/C95A/C132A/C148A/C183A/C197A/C204A): as the sequence (P49799 52-205 C71A/C132A/C148A/C183A/C197A/C204A) above, with C44A counted along it
# T8 sequence (P49799 52-205 C71A/C95A/C132A/C148A limits assumed): as the sequence (P49799 52-205 C71A/C132A/C148A/C183A/C197A/C204A) above, with C44A, A132C, A146C, A153C counted along it
# T5 sequence (P49799 52-205 C71A/C95A/C148A/C183A/C197A/C204A): as the sequence (P49799 52-205 C71A/C132A/C148A/C183A/C197A/C204A) above, with C44A, A81C counted along it
# T10 sequence (P49799 52-205 C95A/C132A/C148A/C183A/C197A/C204A): as the sequence (P49799 52-205 C71A/C132A/C148A/C183A/C197A/C204A) above, with A20C, C44A counted along it
molecule,measurement,setting,value
"Gαo: Alexa Fluor 532-labeled Gα subunit, binding partner of RGS proteins in the FCPIA (protein, Alexa Fluor 532 label (sites not given)) MGCTLSAEERAALERSKAIEKNLKEDGISAAKDVKLLLLGAGESGKSTIVKQMKIIHEDGFSGEDVKQYKPVVYSNTIQSLAAIVRAMDTLGVEYGDKERKADSKMVCDVVSRMEDTEPFSAELLSAMMRLWGDSGIQECFNRSREYQLNDSAKYYLDSLDRIGAADYQPTEQDILRTRVKTTGIVETHFTFKNLHFRLFDVGGQRSERKKWIHCFEDVTAIIFCVALSGYDQVLHEDETTNRMHESLMLFDSICNNKFFIDTSIILFLNKKDLFGEKIKKSPLTICFPEYPGSNTYEDAAAYIQTQFESKNRSPNKEIYCHMTCATDTNNIQVVFDAVTDIIIANNLRGCGLY",Kd,[1],5 ± 0.7 nM
same,Kd,"RGS4 A148C, -7C",5.7 ± 0.2 nM
same,Kd,RGS4 C95A,8.17 ± 1.5 nM
same,Kd,RGS4 C132A,7.9 ± 3.1 nM
same,Kd,RGS4,11.6 ± 1.4 nM
same,Kd,"RGS4 A132C, -7C",12.5 ± 1 nM
same,Kd,"RGS4 A95C, -7C",12 ± 2 nM
same,Kd,RGS4 C71A,12.2 ± 1.8 nM
same,Kd,[2],3.9 ± 0.8 nM
same,Kd,RGS4 C148A,6.84 ± 1 nM
same,Kd,"RGS4 A71C, -7C",9.2 ± 2 nM
same,Kd,RGS4 -7C,8.3 ± 1 nM
